Measurements from US20240400715A1 (VIBRANT PHARMA, published 2024).
Values joined by “and” are separate entries in the source; they are usually repeats but may differ in a detail not shown here. Identical values can stand only once.

What was measured:
[1] = target: T1, human CD3 on Jurkat cells (human, UniProt P07766 23-207; P04234 22-171; P09693 23-182); experiment: FACS, Jurkat cells;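 further: flow cytometric binding of bispecific antibodies to Jurkat T cells, threefold serial dilutions incubated half an hour in the cold, EC50 taken from the fitted binding curve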
T1 construct: whole, on cells; CD3 complex as on Jurkat (Clone E6-1) cells; also called CD3 expressing cells (Jurkat)

[2] = target: T2, human CD3ε/δ (ACRO systems, CDD-H52W1) (human, UniProt P07766 23-126; P04234 22-105); experiment: BLI, antibody captured, antigen in solution;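 further: bispecific antibodies captured on AHIC biosensors to a 1.5 nm loading signal, in PBST with 0.02% detergent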
T2 construct: Bought protein; also called human CD3ϵ/CD3δ; human CD3 epsilon/delta antigen
Procedure: The bispecific antibodies were diluted to 5 ag/ml, and 1.5 nm protein was coupled to the surface of the AHIC sensor chip through 0.02% PBST.

Binder	EC50 [1]	Kd [2] [nM]	koff [2] [s⁻¹]	kon [2] [M⁻¹ s⁻¹]
Fab (Heavy)-Knob+Fab (Light)-Hole-CEA (208) (bispecific antibody, human IgG4 S228P, kappa, F234A L235A, Two-chain format; human IgG4 knob-into-hole Fc) heavy: EVKLLESGGGLVQPKGSLKLSCAASGFTFNTYAMNWVRQAPGKGLEWVARIRSKYNNYATYYADSVKDRFTISRDDSQSILYLQMNNLKTEDTAMYYCVRHGNFGNSYVSWFAYWGQGTLVTVSSASTKGPSVFPLAPCSRSTSESTAALGCLVKDYFPEPVTVSWNSGALTSGVHTFPAVLQSSGLYSLSSVVTVPSSSLGTKTYTCNVDHKPSNTKVDKRVESKYGPPCPPCPAPEAAGGPSVFLFPPKPKDTLMISRTPEVTCVVVDVSQEDPEVQFNWYVDGVEVHNAKTKPREEQFNSTYRVVSVLTVLHQDWLNGKEYKCKVSNKGLPSSIEKTISKAKGQPREPQVYTLPPCQEEMTKNQVSLWCLVKGFYPSDIAVEWESNGQPENNYKTTPPVLDSDGSFFLYSRLTVDKSRWQEGNVFSCSVMHEALHNHYTQKSLSLSL QAVVTQESALTTSPGETVTLTCRSSTGAVTTSNYANWVQEKPDHLFTGLIGGTNKRAPGVPARFSGSLIGDKAALTITGAQTEDEAIYFCALWYSNLWVFGGGTKVEIKRTVAAPSVFIFPPSDEQLKSGTASVVCLLNNFYPREAKVQWKVDNALQSGNSQESVTEQDSKDSTYSLSSTLTLSKADYEKHKVYACEVTHQGLSSPVTKSFNRGECESKYGPPCPPCPAPEAAGGPSVFLFPPKPKDTLMISRTPEVTCVVVDVSQEDPEVQFNWYVDGVEVHNAKTKPREEQFNSTYRVVSVLTVLHQDWLNGKEYKCKVSNKGLPSSIEKTISKAKGQPREPQVCTLPPSQEEMTKNQVSLSCAVKGFYPSDIAVEWESNGQPENNYKTTPPVLDSDGSFFLVSRLTVDKSRWQEGNVFSCSVMHEALHNRFTQKSLSLSLGGGGSGGGGSEVQLVESGGGFVQAGESLTLSCTSSTLTFTPYRMAWYRQAPGKQRDLVADISSGDGRTTNYADFAKGRFTISRDNIKNTVFLRMTNLKPEDTAVYYCNTFVSFVGIARSWGQGTQVTVSS	0.917 µg/mL and 7.06 nM	2.82	0.000642	228000
306 (TA7), configuration of FIG. 1W (bispecific antibody, IgG4, chains put together from VH/VL, CH1, knob-Fc; IgG4, kappa; also called CEA-CD3 bispecific antibody 306; not shown: kappa light chain constant domain (CL)) heavy: EVQLVQSGAEVKKPGASVKVSCKASGFTFTSYYIHWVRQAPGQGLEWIGWIYPENDNTKYNEKFKDRVTITADTSTSTAYLELSSLRSEDTAVYYCARDGYSRYYFDYWGQGTLVTVSSASTKGPSVFPLAPCSRSTSESTAALGCLVKDYFPEPVTVSWNSGALTSGVHTFPAVLQSSGLYSLSSVVTVPSSSLGTKTYTCNVDHKPSNTKVDKRVESKYGPPCPPCPAPEAAGGPSVFLFPPKPKDTLMISRTPEVTCVVVDVSQEDPEVQFNWYVDGVEVHNAKTKPREEQFNSTYRVVSVLTVLHQDWLNGKEYKCKVSNKGLPSSIEKTISKAKGQPREPQVYTLPPCQEEMTKNQVSLWCLVKGFYPSDIAVEWESNGQPENNYKTTPPVLDSDGSFFLYSRLTVDKSRWQEGNVFSCSVMHEALHNHYTQKSLSLSL EVQLVESGGGFVQAGESLTLSCTSSTLTFTPYRMAWYRQAPGKQRDLVADISSGDGRTTNYADFAKGRFTISRDNIKNTVFLRMTNLKPEDTAVYYCNTFVSFVGIARSWGQGTQVTVSSESKYGPPCPPCPAPEAAGGPSVFLFPPKPKDTLMISRTPEVTCVVVDVSQEDPEVQFNWYVDGVEVHNAKTKPREEQFNSTYRVVSVLTVLHQDWLNGKEYKCKVSNKGLPSSIEKTISKAKGQPREPQVCTLPPSQEEMTKNQVSLSCAVKGFYPSDIAVEWESNGQPENNYKTTPPVLDSDGSFFLVSRLTVDKSRWQEGNVFSCSVMHEALHNRFTQKSLSLSL light: DIVMTQSPDSLAVSLGERATINCKSSQSLLNSRTRKNYLAWYQQKPGQSPKLLIYWTSTRKSGVPDRFSGSGSGTDFTLTISSLQAEDVAVYYCKQSFILRTFGQGTKVEIK	0.0129 µg/mL and 0.1 nM	1.4	0.000419	278000
304 (TA5), configuration of FIG. 1W (bispecific antibody, IgG4, chains put together from VH/VL, CH1, knob-Fc; IgG4, kappa; not shown: kappa light chain constant domain (CL)) heavy: DVQLVQSGAEVKKPGASVKVSCKASGYTFTRYTMHWVRQAPGQGLEWIGYINPSRGYTNYADSVKGRFTITTDKSTSTAYMELSSLRSEDTATYYCARYYDDHYCLDYWGQGTTVTVSSASTKGPSVFPLAPCSRSTSESTAALGCLVKDYFPEPVTVSWNSGALTSGVHTFPAVLQSSGLYSLSSVVTVPSSSLGTKTYTCNVDHKPSNTKVDKRVESKYGPPCPPCPAPEAAGGPSVFLFPPKPKDTLMISRTPEVTCVVVDVSQEDPEVQFNWYVDGVEVHNAKTKPREEQFNSTYRVVSVLTVLHQDWLNGKEYKCKVSNKGLPSSIEKTISKAKGQPREPQVYTLPPCQEEMTKNQVSLWCLVKGFYPSDIAVEWESNGQPENNYKTTPPVLDSDGSFFLYSRLTVDKSRWQEGNVFSCSVMHEALHNHYTQKSLSLSL EVQLVESGGGFVQAGESLTLSCTSSTLTFTPYRMAWYRQAPGKQRDLVADISSGDGRTTNYADFAKGRFTISRDNIKNTVFLRMTNLKPEDTAVYYCNTFVSFVGIARSWGQGTQVTVSSESKYGPPCPPCPAPEAAGGPSVFLFPPKPKDTLMISRTPEVTCVVVDVSQEDPEVQFNWYVDGVEVHNAKTKPREEQFNSTYRVVSVLTVLHQDWLNGKEYKCKVSNKGLPSSIEKTISKAKGQPREPQVCTLPPSQEEMTKNQVSLSCAVKGFYPSDIAVEWESNGQPENNYKTTPPVLDSDGSFFLVSRLTVDKSRWQEGNVFSCSVMHEALHNRFTQKSLSLSL light: DIVLTQSPATLSLSPGERATLSCRASQSVSYMNWYQQKPGKAPKRWIYDTSKVASGVPARFSGSGSGTDYSLTINSLEAEDAATYYCQQWSSNPLTFGGGTKVEIK	0.101 µg/mL and 0.77 nM			
301 (TA2), configuration of FIG. 1W (bispecific antibody, IgG4, IgG4, kappa; not shown: kappa light chain constant domain (CL)) heavy: QVQLVQSGGGVVQPGRSLRLSCKASGYTFTRYTMHWVRQAPGKGLEWIGYINPSRGYTNYNQKVKDRFTISRDNSKNTAFLQMDSLRPEDTGVYFCARYYDDHYCLDYWGQGTPVTVSSASTKGPSVFPLAPCSRSTSESTAALGCLVKDYFPEPVTVSWNSGALTSGVHTFPAVLQSSGLYSLSSVVTVPSSSLGTKTYTCNVDHKPSNTKVDKRVESKYGPPCPPCPAPEAAGGPSVFLFPPKPKDTLMISRTPEVTCVVVDVSQEDPEVQFNWYVDGVEVHNAKTKPREEQFNSTYRVVSVLTVLHQDWLNGKEYKCKVSNKGLPSSIEKTISKAKGQPREPQVYTLPPCQEEMTKNQVSLWCLVKGFYPSDIAVEWESNGQPENNYKTTPPVLDSDGSFFLYSRLTVDKSRWQEGNVFSCSVMHEALHNHYTQKSLSLSL EVQLVESGGGFVQAGESLTLSCTSSTLTFTPYRMAWYRQAPGKQRDLVADISSGDGRTTNYADFAKGRFTISRDNIKNTVFLRMTNLKPEDTAVYYCNTFVSFVGIARSWGQGTQVTVSSESKYGPPCPPCPAPEAAGGPSVFLFPPKPKDTLMISRTPEVTCVVVDVSQEDPEVQFNWYVDGVEVHNAKTKPREEQFNSTYRVVSVLTVLHQDWLNGKEYKCKVSNKGLPSSIEKTISKAKGQPREPQVCTLPPSQEEMTKNQVSLSCAVKGFYPSDIAVEWESNGQPENNYKTTPPVLDSDGSFFLVSRLTVDKSRWQEGNVFSCSVMHEALHNRFTQKSLSLSL light: DIQMTQSPSSLSASVGDRVTITCSASSSVSYMNWYQQTPGKAPKRWIYDTSKLASGVPSRFSGSGSGTDYTFTISSLQPEDIATYYCQQWSSNPFTFGQGTKLQIT	0.282 µg/mL and 2.17 nM			
Knob+CEA-Fab-Hole (206) (bispecific antibody, human IgG4 S228P, kappa, F234A L235A, VHH linked to the VH of the Fab; human IgG4 knob-into-hole Fc) ESKYGPPCPPCPAPEAAGGPSVFLFPPKPKDTLMISRTPEVTCVVVDVSQEDPEVQFNWYVDGVEVHNAKTKPREEQFNSTYRVVSVLTVLHQDWLNGKEYKCKVSNKGLPSSIEKTISKAKGQPREPQVYTLPPCQEEMTKNQVSLWCLVKGFYPSDIAVEWESNGQPENNYKTTPPVLDSDGSFFLYSRLTVDKSRWQEGNVFSCSVMHEALHNHYTQKSLSLSL heavy: EVQLVESGGGFVQAGESLTLSCTSSTLTFTPYRMAWYRQAPGKQRDLVADISSGDGRTTNYADFAKGRFTISRDNIKNTVFLRMTNLKPEDTAVYYCNTFVSFVGIARSWGQGTQVTVSSGGGGSGGGGSEVKLLESGGGLVQPKGSLKLSCAASGFTFNTYAMNWVRQAPGKGLEWVARIRSKYNNYATYYADSVKDRFTISRDDSQSILYLQMNNLKTEDTAMYYCVRHGNFGNSYVSWFAYWGQGTLVTVSSASTKGPSVFPLAPCSRSTSESTAALGCLVKDYFPEPVTVSWNSGALTSGVHTFPAVLQSSGLYSLSSVVTVPSSSLGTKTYTCNVDHKPSNTKVDKRVESKYGPPCPPCPAPEAAGGPSVFLFPPKPKDTLMISRTPEVTCVVVDVSQEDPEVQFNWYVDGVEVHNAKTKPREEQFNSTYRVVSVLTVLHQDWLNGKEYKCKVSNKGLPSSIEKTISKAKGQPREPQVCTLPPSQEEMTKNQVSLSCAVKGFYPSDIAVEWESNGQPENNYKTTPPVLDSDGSFFLVSRLTVDKSRWQEGNVFSCSVMHEALHNRFTQKSLSLSL light: QAVVTQESALTTSPGETVTLTCRSSTGAVTTSNYANWVQEKPDHLFTGLIGGTNKRAPGVPARFSGSLIGDKAALTITGAQTEDEAIYFCALWYSNLWVFGGGTKVEIKRTVAAPSVFIFPPSDEQLKSGTASVVCLLNNFYPREAKVQWKVDNALQSGNSQESVTEQDSKDSTYSLSSTLTLSKADYEKHKVYACEVTHQGLSSPVTKSFNRGEC	8.29 nM and 1.08 µg/mL	3.08	0.000552	180000
CEA-Knob-Fab-+Hole (107) (bispecific antibody, human IgG4 S228P, kappa, F234A L235A, Anti-CD3 TA1 Fab + anti-CEA VHH C17 on human IgG4 knob-into-hole Fc) heavy: EVQLVESGGGFVQAGESLTLSCTSSTLTFTPYRMAWYRQAPGKQRDLVADISSGDGRTTNYADFAKGRFTISRDNIKNTVFLRMTNLKPEDTAVYYCNTFVSFVGIARSWGQGTQVTVSSESKYGPPCPPCPAPEAAGGPSVFLFPPKPKDTLMISRTPEVTCVVVDVSQEDPEVQFNWYVDGVEVHNAKTKPREEQFNSTYRVVSVLTVLHQDWLNGKEYKCKVSNKGLPSSIEKTISKAKGQPREPQVYTLPPCQEEMTKNQVSLWCLVKGFYPSDIAVEWESNGQPENNYKTTPPVLDSDGSFFLYSRLTVDKSRWQEGNVFSCSVMHEALHNHYTQKSLSLSLGGGGSGGGGEVKLLESGGGLVQPKGSLKLSCAASGFTFNTYAMNWVRQAPGKGLEWVARIRSKYNNYATYYADSVKDRFTISRDDSQSILYLQMNNLKTEDTAMYYCVRHGNFGNSYVSWFAYWGQGTLVTVSSASTKGPSVFPLAPCSRSTSESTAALGCLVKDYFPEPVTVSWNSGALTSGVHTFPAVLQSSGLYSLSSVVTVPSSSLGTKTYTCNVDHKPSNTKVDKRV ESKYGPPCPPCPAPEAAGGPSVFLFPPKPKDTLMISRTPEVTCVVVDVSQEDPEVQFNWYVDGVEVHNAKTKPREEQFNSTYRVVSVLTVLHQDWLNGKEYKCKVSNKGLPSSIEKTISKAKGQPREPQVCTLPPSQEEMTKNQVSLSCAVKGFYPSDIAVEWESNGQPENNYKTTPPVLDSDGSFFLVSRLTVDKSRWQEGNVFSCSVMHEALHNRFTQKSLSLSL light: QAVVTQESALTTSPGETVTLTCRSSTGAVTTSNYANWVQEKPDHLFTGLIGGTNKRAPGVPARFSGSLIGDKAALTITGAQTEDEAIYFCALWYSNLWVFGGGTKVEIKRTVAAPSVFIFPPSDEQLKSGTASVVCLLNNFYPREAKVQWKVDNALQSGNSQESVTEQDSKDSTYSLSSTLTLSKADYEKHKVYACEVTHQGLSSPVTKSFNRGEC	2.8 µg/mL and 21.6 nM	2.23	0.000803	360000
